Assay: yeast display, Sf9 membrane polyspecificity reagent, FACS + sequencing; frameworks hold sequencing errors
Outline: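 Genes from sorted yeast were amplified by colony PCR, read by MiSeq 2 × 250 sequencing and filtered on CDR length. These cells carried a synthetic nanobody library in Saccharomyces cerevisiae BJ5465 and were sorted by FACS into low and high (top ~1%) gates on anti-HA and streptavidin fluorescence. Polyreactivity is labelled according to the gate of origin.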

Row | Sequence | polyreactivity (PSR sort gate)
1 | QVQLVESGGGVVQAGGSLRLSCAASGYIYLVYAMGWYRQATGKETELVAAISSGGSTYYADSVKGRFTISRDNAKNTVYLQMNSLKPEDTSVYYCATAGLALYAFRDDYWGQGTQVTVSS | low polyreactivity
2 | QVQLVESGGGLVQAGGSLRLSCAASGIIFNTYAMGWYRQAPGKERELVAAIDSRDASTYADSVKGRFTISRDNAKNTVYLQMNSLKPEDTAVYYCAATHIVDLISEVYYWGQGTQVTVSS | low polyreactivity
3 | QVQLVESGGGLVQAGGSLRLSCAASGSTSAAYAMGWYRQAPGKERELVAAISKRGGSTYYADSVKGRFTISRDNAKNTVYLQMNSLKPEDTAVYYCNKYHFPGYWSRFDYWGQGTQVTVSS | high polyreactivity
4 | QVQLVESGGGLVQAGGSLRLSCAASGRTFDGYAMGWSRQAPGKERELVAAINRSGGNTYYADSVKGRFTISRDNAKNTVYLQMNSLNPVDTAVYYCAADGWTSIGVPDYQHDYWGQGTQVTVSS | high polyreactivity
5 | QVQLVESGGGLVQAGGSLRLSCAASGSTFVDYAMGWYRQAPGKERELVAAMSSSGGSTYYADSVKGRFTISRDNAKNTVYLQMNSLKPEDTAVYYCAARYDRSSKRNYWGQGTQVTVSS | low polyreactivity
6 | QVQLVESGGGLVQAGGILSLSSAAYGRISVFYTMGWYIQAPGKERELVAVIRTAGGRTKYADSVKGRFTISRDNAKNTVYLQMNSLKPEDTAVYYCADRVVRYGYKYYYWGQGTQVTVSS | low polyreactivity
7 | QVQLVESGGGLVQAGGSLRLSCAASGLTFTGYAMGWYRQAPGKERELVAAISRGDSTYYAYSVNGRFTISRDNAKNTVYLQMNSLKPEDTAVYYCAAYKGYGRRPGVSGYYWGQGTQVTVSS | high polyreactivity
8 | QVQLVESGGGLVQAGGSLRLSCAASGSTFYSNVMGWYTQATGKEREFVAGISGSGGSTYYADSVKGRFTISRDNAKNTVYLQMNSLKPDDTAVYYCAKYRYSRYFRYDYWGQGTQVTVSS | high polyreactivity
9 | QVHLVESGGGLVQAGGSLRLSCAASGRIFSSNAMGWYRQAPGKERELVAAISWIVGRTYYADSVKGRFTISRDNAKNTVYLQMNRLKPEDTAVYYCAKGSYYGRKRGWGYYYWGQGTQVTVSS | high polyreactivity
10 | QVQLVESGGGLVQAGGSLRLSCAASGFTFRYYAMGWYRQAPGKERELVAAISKSGGSTYYADSVKGRFTISRDNAKNTVYLQMNSLKPEDTGVFYCAADYAHIGYDYDYWGQGTQVTVSS | high polyreactivity
11 | QVQLVESGGGLVQAGGSLRLSCAASGRTFAPYAMGWYRQARGQERELVATITRTGRTNYADSVKGRFTISRDNAKNTVYLQMNSLKPEDTAVYYCAAYTYYGFYYWGQGTQVTVSS | high polyreactivity
12 | QVQLVESGGGLVQAGGSLRLSCAASGFIFTPYAMGWYRQAPGKERELVAAITWRGARTYYADSVKGRFTISRDIAKNSVYLQMNSLKPEDTAVYYCAALSRRSYAPRDDYWGQGTQVTVSS | high polyreactivity
13 | QVQLVESGGGLVQAGGSLRLSCAASGRIFLSNALGWYRQAPGKERELVAAINSGGNTDYADSVKGRFTISRDNAKNTVYLQMNSLKPEDTAVYYCAADAFSWDHDYWGQGTQVTVSS | low polyreactivity
14 | QVQLVESGGGLVQAGGSLRLSCAASGLTFEHNAMGWYRQAPGKEREFVAVISWRGTSTYYADSVKGRFTISRDNAKNTVYLQMNSLKPEATAVYYCAAGYRGVANRKWIYYYWGQGTQVTVSS | high polyreactivity
15 | QVQLVESGGGLVQAGGSLRLSCAASGRTFRRYAMGWYRQAPGKERELVAAIRSDGSTYYADSVKGRFTISRDNAKNTVYLQMNSLKPEDTAVYYCAKVLDQRRRYDYWGQGTQVTVSS | low polyreactivity
16 | QVQLVESGGGLVQAGGSLRLSCAASGSTFDKYPLGWYRQAPGKERELVAAITWGGGSTYYADSVKGRFTISRDNAKNTVYLQMNSLKPEDTAVYYCAAEQGSSVLYDSWGQGTQVTVSS | low polyreactivity
17 | QVQLVESGGGLVQAGGSLRLSCAASGFIVVFNAMGWYRQAPGKERELVAAINGGDITNYADSVKGRFTISRDNAKNTVYLQMNSLKPEDTAVYYCAADGEDSMWTGYDYDYWGQGTQVTVSS | low polyreactivity
18 | QVQLVESGGGLVQAGGSLSLSCGASGRIFSLYAMGWYRQAPGKERELVAAMSWGAGSTYYADSVKGRFTISRDNAKNTVYLQMNSLKREATAVYYCATGRRYYYPYASYLKYGYWGQGTQVTVSS | high polyreactivity
19 | QVQLVETGGGLVQAGGSLRLSCAASGRIFWRNDMGWYRQAPGKERELVAAISGSGGSTSYADSVKGRFTISRDNAKNTVYLQLNSLKPEDTAVYYFAADSESVGYEYWGQGTQVTVSS | high polyreactivity
20 | QVQLVESGGGLVQAGGSLRLSCAASGSIFGYYAMGWYRQAPGKERELVAAISYGGGRTYYADSVKGRFTISRDNAKNTVYLQMNSLKPEDTAVYYCAADVQSRYVGEGDYWGQGTQVTVSS | high polyreactivity
21 | QVQLVESGGGLVQAGGSLRLSCAASGRTFQTYAMGWYRQAPGKERELVASINWSDGSTYYADSVKGRFTISRDNAKNTVYLQMNSLKPEDTAVYYCAADSSAWLYDYWGQGTQVTVSS | low polyreactivity
22 | QVQLVESGGGLVQAGGTLRLSCSASGSTFAINAMGWYRQPPGKERELVATITSGSNTNNADSVKGRFTISRDNAKNTVDLQMNSLNPEDTAVYYCAAAFGYRFHYGYFYIYDYWGQGTQVTVSS | high polyreactivity

Row | Sequence | polyreactivity (PSR sort gate)
23 | QVQLVESGGGLVQSGGSLRLSCDASGRIFSRYAMGWYIQAPGKEREFVAAISRSGTSTYYADSVKVRFTISRDNAKNTVYLQMNSLKPEDTAVYYCAADYPAVISIRRYDYWGQGTQVTVSS | low polyreactivity
24 | QVQLVESGGGLVQAGGSLRLSCAASGRTFGLYAMGWYRQAPGKERELVATISVSSGSTYYADSVKGRFTISRDNAKYTVYLQMNSLKPEDTAVYYCNVRYKRNRWQYDYWGQGTQVTVSS | high polyreactivity
25 | QDQHVESGGGLVQAGCSLRLSCAASGFIFTYYAMGWYRQAPGKERELVAAISRSGGNTYYADSVKGRFTISRDNAKNTVYFQMYSLKREDTAVYFCAAETRRGGYWGYEYYYWGQGTQVTVSS | high polyreactivity
26 | QVQLVESGAGLVQAGGSLRLSCAASGRTFGTNTKGWYRPAPGKEREFVATITSSGGSTYYADSVKGRFTISRDNAKNTVYLQMNSLKPEDTAVYYCATDPYGGKTQYPSLRYDYWGQGTQVTVSS | low polyreactivity
27 | QVQLVESGGGLVQAGGSLRLSCAASGSIFRIYAMGWYRQAPGKERELVAAISTSGVRTYYADSVKGRFTISRDNAKNTVYLQMNSLKPEDTAVYYCNARYVRPRGTGDFDYWGQGTQVTVSS | high polyreactivity
28 | QVQLVESGGGLVQAGGSLRLSCAASGSIFSTYAMGWYRQAPGKERELVASITSTGGSTYYADSVKGRFTISRDNAKNTVYLQMNSLKPEDTAVYYCAARYRRTHRYYYAYSTMDYWGQGTQVTVSS | high polyreactivity
29 | QVQLVESGGGLVQAGGSLRLSCDASGRTFLRNTMGWYRQAPGKERELVAAISRSGATTYYADSVKGRFTISRDNAKNTVYLQMNTLKPEDTADYYCAAAYRGREVEYNSWGQGTQVTVSS | high polyreactivity
30 | QVQLVESGGGLVQAGGSLRLSCAASGRIFYQYVMGWYRQAPGKDRELVAAISRRGGSTYYADSVKGRFTISRDNAKNTVYLQMNSLKPEDTAVYYCAARRRYRRHRYDYWGQGTQVTVSS | high polyreactivity
31 | QVQLLESGGGLVQAGGSLRLSCAASGSIFEGNGMGWYRQAPGKERELVAAITFRSGSTYYADSVKGRFTISRDNAKNTVYLQMNSLKPEDTAVYYCAADEYYEVSAYDYWGQGTQVTVSS | low polyreactivity
32 | QVQLVESGGGLVQAGGSLRLSCAASGIIFAYNAMGWYRQAPGNERELVAAITSGTSTHYADSVKGRFTISRDNAKNTVYLQMNSLKPEDTAVYYCAKVYSYFNPRTYKPSFAGSDYWGQGTQVTVSS | low polyreactivity
33 | QVQRVESGGGLVQAGGSLRLSCAASGYTFYFYDMGWYRQAPGKERELVAAITSSGGSTYYADSVKGRFTISRDNAKNTVYLQMNSLKPEDTAVYYCNALITYSSDYWGQGTQVTVSS | low polyreactivity
34 | QVQLVESGGGLVQAGGSLRLSCASSGSIFGGYAMGWYRQAPGKERELVAAITSSGGLTYYADSVKGRFTISRDNAKNTVYLQMNCLKPEDTAVYYCAAVTVAGYDYWGQGTQVTVSS | high polyreactivity
35 | QVQLVDSGGGLVQAGGSLRLSCAASGRTFTIYAIGWYRQAPGKEREFVASITGSDGSTYYADSVKGRFTISRDNAKNTVYLQMNSLKPEDTAVYYCAAATSSAYDYWGQGTQVTVSS | low polyreactivity
36 | QVQLVESGGGLVQAGGSLRLSCAASGLIFATYAMGWSRQAPGKERELVAAISYRGSRTYYADSVKGRFTISRDNAMTTVYLQMNILKPEDTGVYYCAAVYRTYGIGPNNYWGQGTQVTVSS | high polyreactivity
37 | QVQLVESGGGLVQAGGSLRLSCAASGSTFGRNTMGWYRPAPGKERELVAAITAGDTTTYADSVKGRFTISRDNAKNTDYLQMKSLKREDTAVYYCAVDPVRGRDYSWMDYWGQGSQVTVSS | low polyreactivity
38 | QVQLVESGGGLVQAGGSLRLSCAASGSIFAKYAMGLYRQAPGKERELVAGITRGGSTYYADSVKGRFTISRDNAKNTVYLQMNSLKQEDTAVYYCAAKRHTSLYVYYYWGLGTQVTVSS | high polyreactivity
39 | QVQIVESGGGLVQAGGSLRISCPASGRTFNYNAMGWYRQAPGKERELVAAITSGASTNYADSVKGRFTISRDNAKNTVFLQINRLKPEDTAVYYCAKATYPHEYDYWGQGTQVNVSS | low polyreactivity
40 | QVQLVESGGGLVQAGGSLRLSCAASGSICRRNDMGWYRQAPGKERELVAAISSNGGSTYYADSVKGRFTISRDNAKNTVYLQMNSLKPEDTAVYYCNALVRVRYSPRYGYDYWGQGTQVTVSS | high polyreactivity
41 | QVQLVESGGGLFQAGVSLRLSCAASGRTLQIYHMGWYRQAPGKERELVAAISSSGGSTYYADSVKGRFTISRDNAKNTVYVQMNSLKAEDTAVYYCAADPRGYGYTRKGYYWGQGTQVTVSS | high polyreactivity
42 | QVQLVESGGGLVQAGGSLRLSCAASGSTFGKYAMGWYRPAPGKERELVAGITYSGGSTYYADSVKGRFTISRDNAKNTVYLQMNSLKPEDTAVYYCAADGSYYTDFVASKYDYWGQGTQVTVSS | low polyreactivity
43 | QVQLVESGGGLVQAGGSLRLTCAASGNTFYGYAMGWYRQAPGKERELVASITLSGDSTYYADSVKGRFTISRDNAKNTVYLQMNSLKPEDTAVYYCAGVYTYPLGYFHYTYDYWGQVTQVTVSS | low polyreactivity

Reference: the nanobody polyreactivity screen of Harvey et al. (2022)
